# B1: protease: zinc-binding metalloprotease from Aranicola proteolyticus HY-3, amino acid sequence SEQ ID NO. 1, apparent molecular weight about 51.5 kDa (protein, listed as Aranicola proteolyticus)
# chain: MQSTKKAIEITESSLAAASSAYNAVDDLLHYHERGNGIQVNGKDSFSTEQAGLFITRENQTWNGYKVFGQPVKLTFSFPDYKFSSTNVAGDTGLSKFSAEQQQQAKLSLQSWSDVANITFTEVGAGQKANITFGNYSQDRPGHYDYDTQAYAFLPNTIYQGQNLGGQTWYNVNQSNVKHPASEDYGRQTFTHEIGHALGLSHPGDYNAGEGNPTYRDASYAEDTREFSLMSYWSETNTGGDNGGHYAAAPLLDDISAIQHLYGANQTTRTGDTVYGFNSNTGRDFLSTTSNPQKVIFAAWDAGGNDTFDFSGYTANQRINLNEKSFSDVGGLKGNVSIAAGVTIENAIGGSGNDVIVGNAANNVLKGGAGNDVLFGGGGADELWGGAGKDTFVFSAVSDSAPGASDWIKDFQKGIDKIDLSFFNQGAQGGDQIHFVDHFSGAAGEALLSYNASNNVSDLALNIGGHQAPDILVKIVGQVDVATDFIV
# modifications: BINDING (192) Zn binding site
# notes: 1, apparent molecular weight about 51.5 kDa
# Assays:
# [1] = Protein eluted from raw skin (leather deliming application); conditions: 0.5% of protease
# Procedure: A 20 g of raw skin finely cut into pieces of suitable size and 14 ml of distilled water was mixed in a 50 ml test tube. Then, 0.5% sodium bisulfite and 0.5% ammonium sulfate on the basis of the weight of skin was added thereto and the mixture was incubated for 15 minutes at 26° C. Subsequently, 0.2% of detergent and 0.5% of deliming agent was added thereto and waited for 30 minutes and 1 hour, respectively, before measuring the amount of protein eluted from the skin. In the presence of the 0.5% of protease, the protein eluted amounted to 1054 mg/ml and 1062 mg/ml after 30 minutes and 60 minutes, respectively. In the absence of the protease, the protein eluted amounted to 304.5 mg/ml and 329.5 mg/ml after 30 minute and 60 minutes, respectively.
# azocasein [2] = assay: Effects of salts on the activity of the protease; format: biochemical; conditions: for relative activity: 37° C., 4 hours
# Procedure: (§1) Enzyme activity of the protease was measured according to the method described by Braun & Shmitz (Braun, V. & Schmitz, G., Arch. Microbiol. 124, 55-61, 1980). A substrate solution was prepared by dissolving 0.24 g of azocasein in 10 ml of 50 mM phosphate buffer (pH 7.5). The 300 □ of the substrate solution was mixed with 100 □ of bacterial culture solution and reacted at 37° C. for 30 minutes. Then, 300 □ of 10% trichloride acetate was added to the reaction solution and incubated at ambient temperature for 1 hour. The reaction solution was centrifuged at 7,000 rpm until pellet and supernatant was separated substantially. After adding 30 0 of 10% sodium hydroxide (NaOH) to the supernatant, the absorbance was measured at 420 nm. The enzymatic titer was defined as 1 unit by the 1.0 fold increment of absorbance value.
# In order to examine effects of salts on the activity of protease, the relative enzyme activity was measured at 37° C. for 4 hours in the presence of various concentrations of sodium chloride solution ranging from 0 to 1700 mM. The relative activity was measured according to the method described in Example 3(1). For comparison, the protease derived from Serratia marcescens SM6 was used as a control.
# azocasein [3] = assay: Effect of heat on the activity and stability of the protease; format: biochemical
# Procedure: as §1
# In order to examine the effect of heat on the activity and stability of the protease, the relative enzyme activity was measured at temperatures ranging from 4° C. to 80° C. The measurement of the activity was performed according to the method described in Example 3(1).
# azocasein [4] = assay: Effect of pH on the activity and stability of the protease; format: biochemical; conditions: for relative activity: 30 minutes
# Procedure: as §1
# In order to examine the pH-dependence of the protease of the invention, the inventors prepared various substrate solution with different pH. The each substrate solution was buffered with citrate-phosphate(pH 3.0 to 7.0), sodium phosphate(pH 7.0 to 9.0), Tris-HCl(pH 7.0 to 10.0), and glysine-caustic soda(pH 9.0 to 12.0), respectively. The relative protease activity was measured after mixing enzyme with each of the above substrate solution at 37° C. for 30 minutes. The measurement of the relative protease activity was followed by the method described in Example 3(1).
# [5] = system: albumin, casein, collagen, elastin and hemoglobin; assay: Activity of the protease on various substrates; format: biochemical; conditions: all the other substrates including hemoglobin
# Procedure: In order to examine the degrading ability of the enzyme against various substrates, the enzyme reactions were performed on substrates such as albumin, casein, collagen, elastin and hemoglobin. […] In 24 hour reaction, all the other substrates including hemoglobin achieved at least 45.
molecule,measurement,setting,value
B1,protein eluted from the skin,[1]; after 30 minutes,1050 µg/mL
same,protein eluted from the skin,[1]; after 60 minutes,1060 µg/mL
same,activity under high salt concentrations,azocasein [2]; high salt concentrations,retains high activity
same,relative activity,azocasein [2]; salt concentration 0 mM NaCl,100%
same,relative activity,azocasein [2]; salt concentration 170 mM NaCl,134%
same,relative activity,azocasein [2]; salt concentration 340 mM NaCl,173%
same,relative activity,azocasein [2]; salt concentration 510 mM NaCl,200%
same,relative activity,azocasein [2]; salt concentration 680 mM NaCl,215%
same,relative activity,azocasein [2]; salt concentration 1020 mM NaCl,203%
same,relative activity,azocasein [2]; salt concentration 1360 mM NaCl,196%
same,relative activity,azocasein [2]; salt concentration 1700 mM NaCl,155%
same,activity maintained at low temperature,"azocasein [3]; 4° C. to 15° C., relative to maximum activity",about a half of the maximum activity
same,temperature of maximum activity,azocasein [3]; measured from 4° C. to 80° C.,37 °C
same,relative activity,azocasein [3]; temperature 4 ° C.,43%
same,relative activity,azocasein [3]; temperature 10 ° C.,45%
same,relative activity,azocasein [3]; temperature 15 ° C.,50%
same,relative activity,azocasein [3]; temperature 20 ° C.,76%
same,relative activity,azocasein [3]; temperature 25 ° C.,81%
same,relative activity,azocasein [3]; temperature 30 ° C.,93%
same,relative activity,azocasein [3]; temperature 37 ° C.,100%
same,relative activity,azocasein [3]; temperature 45 ° C.,28%
same,relative activity,azocasein [3]; temperature 50 ° C.,22%
same,relative activity,azocasein [3]; temperature 60 ° C.,20%
same,relative activity,azocasein [3]; temperature 70 ° C.,14%
same,relative activity,azocasein [3]; temperature 80 ° C.,3%
same,"Ea value (hydrolysis of azocasein), activation energy in Arrenius plot",azocasein [3]; temperatures between 4° C. and 37° C.,2.43 kcal/mol
same,relative activity,azocasein [3]; temperatures between 20° C. to 40° C.,at least 75%
same,pH of maximum activity,azocasein [4]; azocasein substrate,8.0
same,relative activity,"azocasein [4]; pH 3.0, 37° C.",43%
same,relative activity,"azocasein [4]; pH 4.0, 37° C.",66%
same,relative activity,"azocasein [4]; pH 5.0, 37° C.",73%
same,relative activity,"azocasein [4]; pH 5.5, 37° C.",77%
same,relative activity,"azocasein [4]; pH 6.0, 37° C.",79%
same,relative activity,"azocasein [4]; pH 7.0, 37° C.",81%
same,relative activity,"azocasein [4]; pH 7.5, 37° C.",83%
same,relative activity,"azocasein [4]; pH 8.0, 37° C.",100%
same,relative activity,"azocasein [4]; pH 8.5, 37° C.",99%
same,relative activity,"azocasein [4]; pH 9.0, 37° C.",90%
same,relative activity,"azocasein [4]; pH 9.5, 37° C.",80%
same,relative activity,"azocasein [4]; pH 10.0, 37° C.",78%
same,relative activity,"azocasein [4]; pH 11.0, 37° C.",76%
same,relative activity,"azocasein [4]; pH 12.0, 37° C.",71%
same,activity relative to maximum activity,azocasein [4]; pH of 5.0 to 12.0,at least 70%
same,degrading ability (albumin in 24 hour reaction defined as 100),[5],at least 45

# Source: patent US7297332B2, “Protease, a gene therefor and the use thereof” (Korean Research Institute of Bioscience and Biotechnology, priority 2000, dated 2007)
